Common to all, as to details: remark: other sources report otherwise
The target of test [1] is HLA-A02:01 (human). The experiment in a line: peptide-HLA affinity, Example 36.
The target in test [2] is HLA-B07:02 (human). Nature of the test: peptide-HLA affinity, Example 36.
Test [3] has as its target HLA-B08:01 (human). Nature of the test: peptide-HLA affinity, Example 36.
Test [4] has as its target HLA-A02:01 (human). Nature of the test: peptide-HLA stability, Example 36.
Test [5] concerns the target HLA-B07:02 (human). Nature of the test: peptide-HLA stability, Example 36.
In test [6] the target is HLA-B08:01 (human). The experiment in a line: peptide-HLA stability, Example 36.
Test [7] deals with HLA-A02:01 (human). The experiment in a line: peptide-HLA affinity, Example 9.
Test [8] has as its target HLA-A02:01 (human). The experiment in a line: peptide-HLA stability, Example 9.
In test [9] the target is HLA-A01:01 (human). The experiment in a line: peptide-HLA affinity, Example 41.
In test [10] the target is HLA-A01:01 (human). The experiment in a line: peptide-HLA stability, Example 41.
The target of test [11] is HLA-A02:01 (human). The experiment in a line: peptide-HLA affinity, Example 41.
Test [12] concerns the target HLA-A02:01 (human). Nature of the test: peptide-HLA stability, Example 41.
Test [13] concerns the target HLA-B08:01 (human). The experiment in a line: peptide-HLA stability, Example 41.
Test [14] has as its target HLA-B07:02 (human). Nature of the test: peptide-HLA affinity, Example 41.
For test [15], the target named is HLA-B07:02 (human). Nature of the test: peptide-HLA stability, Example 41.
Test [16] has as its target HLA-A24:02 (human). Nature of the test: peptide-HLA affinity, Example 9.
The target of test [17] is HLA-A24:02 (human). Nature of the test: peptide-HLA stability, Example 9.
Test [18] has as its target HLA-B08:01 (human). Nature of the test: peptide-HLA stability, Example 9.
Test [19] has as its target HLA-A02:01 (human). Nature of the test: pMHC-I dissociation, 125I-b2m, 37C; average of 2.
Test [20] addresses HLA-B08:01 (human). The experiment in a line: pMHC-I dissociation, 125I-b2m, 37C; average of 2.
Test [21] concerns the target HLA-A02:01 (human). The experiment in a line: pMHC-I dissociation, 125I-b2m, 37C; experiment 1.
The target of test [22] is HLA-B08:01 (human). The experiment in a line: pMHC-I dissociation, 125I-b2m, 37C; experiment 1.
Test [23] deals with HLA-A02:01 (human). The experiment in a line: pMHC-I dissociation, 125I-b2m, 37C; experiment 2.
Test [24] concerns the target HLA-B08:01 (human). The experiment in a line: pMHC-I dissociation, 125I-b2m, 37C; experiment 2.

Take SLLNYLREM: the Affinity in the test with HLA-A02:01 (human) [1] worked out at 67.7 nM; with HLA-B07:02 (human) [2] it was 866 nM; in the test with HLA-B08:01 (human) [3] it was 960 nM. Further, the Stability (1/2 hr) turned out to be 3.04 h in the test with HLA-A02:01 (human) [4], 0 h in the test with HLA-B07:02 (human) [5] and 0 h with HLA-B08:01 (human) [6].
As to ALQPLQPHA, the Observed MHC affinity with HLA-A02:01 (human) [7] worked out at 604 nM. In the test with HLA-A02:01 (human) [8], the Observed MHC stability came to 1.5 h.
On to LTSTVQLIM, for which the Affinity with HLA-A01:01 (human) [9] turned out to be 2.89 µM. This molecule also registered a Stability (1/2 hr) in the test with HLA-A01:01 (human) [10] of 0.104 h.
IMQLMPFGCL: the Affinity with HLA-A02:01 (human) [11] was 653 nM. Also, the Stability (1/2 hr) with HLA-A02:01 (human) [12] was determined as 0.516 h; with HLA-B08:01 (human) [13], 0 h.
On to MQLMPFGCLL, for which the Affinity with HLA-A02:01 (human) [11] amounted to 16.3 nM. The molecule further displayed a Stability (1/2 hr) with HLA-A02:01 (human) [12] of 0.381 h.
For the molecule CLTSTVQLIM, the Affinity is 8.28 µM with HLA-A01:01 (human) [9] and 537 nM with HLA-A02:01 (human) [11]. The Stability (1/2 hr) with HLA-A01:01 (human) [10] and with HLA-A02:01 (human) [12] was 0 h each time.
As to MQLMPFGCL, the Affinity amounted to 116 nM with HLA-A02:01 (human) [11] and 1590 nM with HLA-B07:02 (human) [14]. Besides, the values for the Stability (1/2 hr) with HLA-A02:01 (human) [12], in the test with HLA-B07:02 (human) [15] and in the test with HLA-B08:01 (human) [13] were 0.368 h, 0 h and 0 h, respectively.
In turn, IMQLMPFGC showed an Affinity with HLA-A02:01 (human) [11] of 1210 nM. In addition, the Stability (1/2 hr) in the test with HLA-A02:01 (human) [12] is 0.37 h.
The like results for STVQLIMQL were, in that order, 7260 nM and 0 h.
The like results for LIMQLMPFG were, in that order, 3340 nM and 0 h.
What is called half-life is the time in which the quantity being followed falls by half. A lower half-life goes with fast loss. In the test with HLA-A24:02 (human) [16], YMFLKAESKI had an Observed MHC affinity of 7 µM. The Observed MHC stability is 0.6 h in the test with HLA-A02:01 (human) [8], 1.2 h in the test with HLA-A24:02 (human) [17] and 0.4 h in the test with HLA-B08:01 (human) [18]. Moreover, the half-life with HLA-A02:01 (human) [19] worked out at 36 min; with HLA-B08:01 (human) [20] it was 24 min; with HLA-A02:01 (human) [21], 36 min; in the test with HLA-B08:01 (human) [22], 24 min; in the test with HLA-A02:01 (human) [23], 36 min; with HLA-B08:01 (human) [24], 30 min.
As to YMANGSLLN, in the test with HLA-A02:01 (human) [1], the Affinity came to 4000 nM. In the test with HLA-A02:01 (human) [4], the Stability (1/2 hr) was determined as 0 h.
In the test with HLA-A02:01 (human) [1], MANGSLLNYL displayed an Affinity of 1010 nM. This molecule displayed a Stability (1/2 hr) in the test with HLA-A02:01 (human) [4] of 0 h.

The values above are taken from patent US20210275657A1, “NEOANTIGENS AND USES THEREOF” (BioNTech US Inc., priority 2018, published 2021).
